Laboratory results from US20250066503A1, “CELL INJURY INDUCING THERAPEUTIC DRUG FOR USE IN CANCER THERAPY” (CHUGAI SEIYAKU KABUSHIKI KAISHA, priority 2016, published 2025).
Substitutions are numbered along the chain they refer to. Where “and” joins values, the source holds several entries; their conditions need not be identical. Equal values may be shown once.

B1: CE115HA251-E22Hh/L0000-k0/GL4-E22Hk/H0000-E22L (bispecific antibody, human IgG1, kappa, L234A L235A, N297A)
heavy: QVQLVESGGGVVQPGRSLRLSCAASGFTFSNAWMHWVRQAPGKGLEWVAQIKAKSNNYATYYAESVKGRFTISRDDSKNSLYLQMNSLKTEDTAVYYCRYVHYYYYYGVDAWGQGTTVTVSSASTKGPSVFPLAPSSKSTSGGTAALGCLVKDYFPEPVTVSWNSGALTSGVHTFPAVLQSSGLYSLSSVVTVPSSSLGTQTYICNVNHKPSNTKVDKKVEPKSCDKTHTCPPCPAPEAAGGPSVFLFPPKPKDTLMISRTPEVTCVVVDVSHEDPEVKFNWYVDGVEVHNAKTKPREEQYASTYRVVSVLTVLHQDWLNGKEYKCKVSNKALPAPIEKTISKAKGQPREPQVYTLPPSRCELTKNQVSLSCAVKGFYPSDIAVEWESNGQPENNYKTTPPVLDSDGSFFLVSKLTVDKSRWQQGNVFSCSVMHEALHNHYTQKSLSLSPDYKDDDDK
light: DIVMTQSPLSLPVTPGEPASISCRSSQSLVHSNRNTYLHWYQQKPGQAPRLLIYKVSNRFSGVPDRFSGSGSGTDFTLKISRVEAEDVGVYYCGQGTQVPYTFGQGTKLEIKRTVAAPSVFIFPPSDEQLKSGTASVVCLLNNFYPREAKVQWKVDNALQSGNSQESVTEQDSKDSTYSLSSTLTLSKADYEKHKVYACEVTHQGLSSPVTKSFNRGEC
chain 1: DIVMTQSPLSLPVTPGEPASISCRSSQSLVHSNRNTYLHWYQQKPGQAPRLLIYKVSNRFSGVPDRFSGSGSGTDFTLKISRVEAEDVGVYYCSQNTHVPPTFGQGTKLEIKSSASTKGPSVFPLAPSSKSTSGGTAALGCLVKDYFPEPVTVSWNSGALTSGVHTFPAVLQSSGLYSLSSVVTVPSSSLGTQTYICNVNHKPSNTKVDKKVEPKSCDKTHTCPPCPAPEAAGGPSVFLFPPKPKDTLMISRTPEVTCVVVDVSHEDPEVKFNWYVDGVEVHNAKTKPREEQYASTYRVVSVLTVLHQDWLNGKEYKCKVSNKALPAPIEKTISKAKGQPREPQVCTLPPSRDELTKNQVSLWCLVKGFYPSDIAVEWESNGQPENNYKTTPPVLDSDGSFFLYSKLTVDKSRWQQGNVFSCSVMHEALHNHYTQKSLSLSPHHHHHHHH
chain 2: QVQLVQSGAEVKKPGASVKVSCKASGYTFTDYEMHWIRQPPGQGLEWIGAIDPKTGDTAYSQKFKGRVTLTADKSTSTAYMELSSLTSEDTAVYYCTRFYSYTYWGQGTLVTVSSASVAAPSVFIFPPSDEQLKSGTASVVCLLNNFYPREAKVQWKVDNALQSGNSQESVTEQDSKDSTYSLSSTLTLSKADYEKHKVYACEVTHQGLSSPVTKSFNRGEC
notes: ERY22 format
B2: CE115HA236-E22Hh/GLS3108-k0/GL4-E22Hk/H0000-E22L (bispecific antibody, human IgG1, kappa, L234A L235A, N297A)
heavy: B1 heavy with Y105A, D110Q
light: B1 light with H39S
chain 1: B1 chain 1
chain 2: B1 chain 2
notes: ERY22 format
B3: TR01H002-E22Hh/GLS3108-k0/GL4-E22Hk/H0000-E22L (bispecific antibody, human IgG1, kappa, L234A L235A, N297A)
heavy: B1 heavy with A59K, T60K, D110Q
light: B1 light with H39S
chain 1: B1 chain 1
chain 2: B1 chain 2
notes: ERY22 format
B4: TR01H099-E22Hh/none-Hi-Kn010G3/L0011-k0 (antibody, V domains shown)
VH: QVQLVESGGGLVQPGRSLRLSCAASGFTFSNAWMHWVRQAPGKGLEWVAQIKDKSQNYAQYYAESVKGRFTISRDDSKNSLYLQMNSLKTEDTAVYYCRYVHYAAGYGVDAWGQGTTVTVSS
VL: DIVMTQSPLSLPVTPGEPASISCRSSQPLVHSNRNTYLHWYQQKPGQAPRLLIYKVSNRFSGVPDRFSGSGSGTDFTLKISRVEAEDVGVYYCGQGTQVPYTFGQGTKLEIKR
notes: one-arm
B5: TR01H082-E22Hh/none-Hi-Kn010G3/TR01L024-k0 (antibody, V domains shown)
VH: B4 VH with Q60T
VL: DIVMTQSPLSLPVTPGEPASISCQASESPVHSNRNTYLHWYLQKPGQSPQLLIYKVSNRFSGVPDRFSGSGSGTDFTLKISRVEAEDVGVYYCTQGTQVPYTFGQGTKLEIK
notes: one-arm
B6: TR01H040-E22Hh/none-Hi-Kn010G3/TR01L012-k0 (antibody, V domains shown)
VH: B4 VH with Q60T, D75A, L81I, A104S, G106S
VL: B5 VL with Q24R, A25S, E27Q, P29L, S61R, T94G, L109V, K112E
notes: one-arm
B7: TR01H040-E22Hh/none-Hi-Kn010G3/TR01L013-k0 (antibody, V domains shown)
VH: B4 VH with Q60T, D75A, L81I, A104S, G106S
VL: B5 VL with P29L, S61R, T94G, L109V, K112E
notes: one-arm
B8: TR01H040-E22Hh/none-Hi-Kn010G3/TR01L011-k0 (antibody, V domains shown)
VH: B4 VH with Q60T, D75A, L81I, A104S, G106S
VL: B5 VL with P29L, L42Q, S48A, Q50R, S61R, T94G, L109V, K112E
notes: one-arm
B9: TR01H040-E22Hh/none-Hi-Kn010G3/L0000vk1-k0 (antibody, V domains shown)
VH: B4 VH with Q60T, D75A, L81I, A104S, G106S
VL: DIQMTQSPSSLSASVGDRVTITCRSSQSLVHSNRNTYLHWYQQKPGKAPKLLIYKVSNRFSGVPSRFSGSGSGTDFTFTISSLQPEDIATYYCGQGTQVPYTFGQGTKVEIK
notes: one-arm
B10: TR01H040-E22Hh/none-Hi-Kn010G3/TR01L018-k0 (antibody, V domains shown)
VH: B4 VH with Q60T, D75A, L81I, A104S, G106S
VL: B5 VL with T94G
notes: one-arm
B11: hCE115HA-E22Hh/none-Hi-Kn010G3/L0000-k0 (antibody, human IgG1, kappa, L234A L235A, N297A, V domains shown)
VH: B4 VH with L11V, D53A, Q56N, Q60T, A104G, G106Y
VL: B4 VL with P28S
notes: one-arm; also called hCE115HA-E22Hh//-Hi-Kn010G3/L0000-k0
B12: rCE115H-G1dh//-Hi-Kn010G3/L0000-k0 (antibody, V domains shown)
VH: EVQLVETGGSLVQPGKSLKLTCATSGFTFSNAWMHWVRQSPEKQLEWVAQIKAKSNNYATYYAESVKGRFTISRDDSKSNIYLQMNSLKEEDTAVYYCRYVHYGAYYGVDAWGQGTSVTVSS
VL: B4 VL with P28S
notes: one-arm
B13: TR01H102-E22Hh/none-Hi-Kn010G3/L0011-k0 (antibody, V domains shown)
VH: B4 VH with Q60T, Y62F
VL: B4 VL
notes: one-arm
B14: TR01H103-E22Hh/none-Hi-Kn010G3/L0011-k0 (antibody, V domains shown)
VH: B4 VH with Q60T, Y62G
VL: B4 VL
notes: one-arm
B15: TR01H100-E22Hh/none-Hi-Kn010G3/L0011-k0 (antibody, V domains shown)
VH: B4 VH with Q60S
VL: B4 VL
notes: one-arm
B16: TR01H101-E22Hh/none-Hi-Kn010G3/L0011-k0 (antibody, V domains shown)
VH: B4 VH with Q60V
VL: B4 VL
notes: one-arm
B17: TR01H112-E2702GsKsc/none-Hi-E2704sE/L0011-k0 (antibody, V domains shown)
VH: B4 VH with L11V, R16G, D75A, L81I, A111I
VL: B4 VL
notes: one-arm
B18: CE115HA251-E22Hh//-Hi-Kn010G3/L0000-k0 (antibody, human IgG1, kappa, L234A L235A, N297A, V domains shown)
VH: B4 VH with L11V, D53A, Q56N, Q60T, A104Y, A105Y, G106Y
VL: B4 VL with P28S
notes: one-arm
B19: TR01H109-E22Hh/none-Hi-Kn010G3/L0011-k0 (antibody, V domains shown)
VH: B4 VH with Q60T, Y62V
VL: B4 VL
notes: one-arm
B20: hCE115HA-G1dh//-Hi-Kn010G3/L0000-k0 (antibody, V domains shown)
VH: B4 VH with L11V, D53A, Q56N, Q60T, A104G, G106Y
VL: B4 VL with P28S
notes: one-arm
B21: TR01H106-E22Hh/none-Hi-Kn010G3/L0011-k0 (antibody, V domains shown)
VH: B4 VH with Q60T, Y62P
VL: B4 VL
notes: one-arm
B22: TR01H114-E2702GsKsc/none-Hi-E2704sE/L0011-k0 (antibody, V domains shown)
VH: B4 VH with L11V, R16G, Q60S, D75A, L81I, A111I
VL: B4 VL
notes: one-arm
B23: TR01H108-E22Hh/none-Hi-Kn010G3/L0011-k0 (antibody, V domains shown)
VH: B4 VH with Q60T, Y62T
VL: B4 VL
notes: one-arm
B24: TR01H105-E22Hh/none-Hi-Kn010G3/L0011-k0 (antibody, V domains shown)
VH: B4 VH with Q60T, Y62L
VL: B4 VL
notes: one-arm
B25: TR01H107-E22Hh/none-Hi-Kn010G3/L0011-k0 (antibody, V domains shown)
VH: B4 VH with Q60T, Y62Q
VL: B4 VL
notes: one-arm
B26: hCE115HAa-E22Hh/none-Hi-Kn010G3/L0000-k0 (antibody, V domains shown)
VH: B4 VH with L11V, R16G, D53A, Q56N, Q60T, A104G, G106Y
VL: B4 VL with P28S
notes: one-arm
B27: TR01H099-E2702GsKsc/none-Hi-E2704sE/L0011-k0 (antibody, V domains shown)
VH: B4 VH
VL: B4 VL
notes: one-arm
B28: TR01H100-E2702GsKsc/none-Hi-E2704sE/L0011-k0 (antibody, V domains shown)
VH: B4 VH with Q60S
VL: B4 VL
notes: one-arm
B29: TR01H015-E22Hh/none-Hi-Kn010G3/L0000-k0 (antibody, human IgG1, kappa, L234A L235A, N297A)
heavy: B1 heavy with V11L, A53G, D75A, L81I, Y104S, Y105A, Y106S, A111I
light: B1 light
notes: one-arm
B30: TR01H110-E2702GsKsc/none-Hi-E2704sE/L0011-k0 (antibody, V domains shown)
VH: B4 VH with L11V, R19K, Q60T
VL: B4 VL
notes: one-arm
B31: hCE115HA-E22stHh/none-Hi-stKn010G3/L0000-k0 (antibody, V domains shown)
VH: B4 VH with L11V, D53A, Q56N, Q60T, A104G, G106Y
VL: B4 VL with P28S
notes: one-arm
B32: TR01H111-E2702GsKsc/none-Hi-E2704sE/L0011-k0 (antibody, V domains shown)
VH: B4 VH with L11V, R16G, R19K, Q60T, D75A, L81I, A111I
VL: B4 VL
notes: one-arm
B33: TR01H104-E22Hh/none-Hi-Kn010G3/L0011-k0 (antibody, V domains shown)
VH: B4 VH with Q60T, Y62I
VL: B4 VL
notes: one-arm

These binders were tested against T1, soluble human CD3 epsilon chain (human, UniProt P07766 23-126) (assay: SPR).
T1 construct: also called CD3ε
T1 sequence (P07766 23-126 limits assumed): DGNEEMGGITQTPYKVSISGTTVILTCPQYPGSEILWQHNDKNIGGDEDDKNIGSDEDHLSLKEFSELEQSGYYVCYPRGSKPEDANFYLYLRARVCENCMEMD
For B1, the Kd was 14.8 nM. Binder B2 has a Kd of 6.95 nM. In the case of B3, the Kd is reported as 4.78 nM. B4 showed a Kd of 77.4 nM. Work on B5 yielded a Kd of 47.6 nM. For B6, the Kd was 42.2 nM. B7 gave a Kd of 41.5 nM. Work on B8 yielded a Kd of 35.7 nM. With B9 the Kd was 46.9 nM. Work on B10 yielded a Kd of 45.1 nM. For B11, the Kd was 143 nM and 124 nM. B12 was tested, and the Kd was 57.6 nM. With B13 the Kd was 85.4 nM. B14 showed a Kd of 77.2 nM. B15 was tested, and the Kd was 62.5 nM. B16 was tested, and the Kd was 78.7 nM. B17 was tested, and the Kd was 5.12 nM. Work on B18 yielded a Kd of 22.3 nM. For B19, the Kd was 70.6 nM. With B20 the Kd was 65 nM. Binder B21 has a Kd of 100 nM. B22 gave a Kd of 4.22 nM. Work on B23 yielded a Kd of 69.8 nM. For B24, the Kd was 69.5 nM. B25 gave a Kd of 69.1 nM. With B26 the Kd was 108 nM. In the case of B27, the Kd is reported as 14.6 nM. B28 was tested, and the Kd was 11.1 nM. Work on B29 yielded a Kd of 61.3 nM. B30 was tested, and the Kd was 12.6 nM. Binder B31 has a Kd of 51.7 nM. B32 was tested, and the Kd was 4.91 nM. B33 gave a Kd of 82.6 nM.
